Tested on: MS2 coat protein
Experiment: apparent KD of MS2 coat protein; higher = weaker reporter binding
Settings: Eterna round: R107
Method in brief: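 Values are apparent KD, taken as the median for each design of fits to normalised binding curves from individual clusters. The designed RNA switches were transcribed on-chip from Illumina sequencing clusters and exposed to SNAP-549-labelled MS2 coat protein at twofold increasing amounts from 0.7 or 1.5 nM to 3 µM. Titration used 100 mM Tris-HCl pH 7.5, 80 mM KCl and 4 mM MgCl2, without or with constant ligand.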

[1] = input ligand: theophylline 20 uM
[2] = input ligand: theophylline 2 mM
[3] = input ligand: tryptophan 2.4 mM

Row | Sequence | apparent KD of MS2 coat protein (input ligand: arginine 13.2 mM) [nM] | apparent KD of MS2 coat protein [1] [nM] | apparent KD of MS2 coat protein [2] [nM] | apparent KD of MS2 coat protein (input ligand: none) [nM] | apparent KD of MS2 coat protein [3] [nM]
1 | ACAUGAGGAUCACCCAUGUCAUGAGGUUCACGAGGACCGGUACGGCCGCCACUCGGGCUUCGGAUCACGGAUGUACAUGAUGAUC [kmullin1] | 45.4 | 92.2 | 123 | – | –
2 | UAUAUAUAUCACUAACUGUUCUUGAGGUCUCGAGGACCGGUACGGCCGCCACUCGUGCCGCCUCACAUGAGGAUCACCCAUGUCC [XTryp A #2] | 55.3 | 79.4 | 81.6 | – | –
3 | CGUAUUGGAAACAGUACGAGUGAUCCGGUCCGAGGACCGGUACGGCCGCCACUCGAAAAUAAAUAACAUGAGGAUCACCCAUGUA [Ex Tryptophan A 8] | 19.5 | 21.6 | 19.8 | – | –
4 | CGUGGUGGGACGGAUACCAGCCACCGCGGCAACGCAACAUGAGGAUCACCCAUGUUGGGUGGCCCUUGGCAGCUGUGCUGCGACG [#1 Same State - Theophylline B Attempt #28 (HarryS)] | 50.9 | 191 | 34.2 | 182 | 95.2
5 | UUAAUCUUGGAUGAAAACAUUUAAGCAGAAGGAGCGUGAUAAAACACAGGUAGGUCGCUGAAGGGAACAUGAGGAUCACCCAUGU [AstrosSSArgA#15] | 22.5 | 28.8 | 31.7 | 38 | 32.9
6 | ACUCGGUGUUUGUUGCUCCGAGUUUAUGAUACCAGUUAGUUUUAUGGCCCUUGGCAGCAUAGGACAUGAGGAUCACCCAUGUGUU [#03 SameState-TheophyllineA] | 26.2 | 38.6 | – | – | 32.2
7 | AGCUCAUAGAGUGAUACCAGACUACAUGAGGAUCACCCAUGUUUCUUUUGGUUAUCAUGUGUCCCUUGGCAGCACAAGAAGAGCA [JR_ExcTheophyB_Sub015] | 13.4 | 20.2 | – | – | 12.7
8 | ACAUGAGGAUCACCCAUGUGGCGAGUUGAUACCAGACCCGCACUAGUCCCUUGGCAGCAACUACGUGUGGGACACCCAUGUUAAG [qpqmullin] | 35.1 | 76.2 | 77.1 | 57.6 | 39.5
9 | AGAUCUUUCGAAAGAAGGAUCUUGUCUGAUACCAGAGACGAAAGUCUCCCUUGGCAGCAGUGCCAACAUGAGGAUCACCCAUGUA [Theophylline A 12] | 22 | 24.7 | – | – | 21.3
10 | UGGCGAGAAGGAAGGAGCGUCAGCUGAGUUACAUGAGGAUCACCCAUGUUGCACAUAGUGUGACAGGUAGGUCGCCUUCUGCCCU [SS-ArgB19] | 38 | 63.7 | 37.5 | 44.1 | 37.6
11 | UCGUAGCUAGGAAGGAGCGCAUACUUCACAUGAGGAUCACCCAUGUCGAGACGUGAGUCAGUGCAGGUAGGUCGCCUAGCUAUGA [Same State - Arginine B (Freestyle 26)] | 18.2 | 22.3 | 21.5 | 17.6 | 19.3
12 | AGAGAGGCGCAUGAUACCAGCUUGGCCUAACAUGAGGAUCACCCAUGUCAAUGGGCCUUAAGCCCUUGGCAGCAUAGGGUGUCCU [Xeestixexe] | 72.7 | 186 | 25.9 | 72.1 | 85.9
13 | ACAGGAAACGGAAGGAGCGGAAUUGCAACAUGAGGAUCACCCAUGUUGAUCGUGAGUUGCUUCCAGGUAGGUCGCCGUUACCUAA [Erorve] | 30.1 | 39.4 | 44.2 | 33.6 | 30.4
14 | AGCAAGCAACAUGAGGAUCACCCAUGUGAAGGAGCGCCGAAUAAGGCAGGUAGGUCGCACAUGAAUAAAUCAUGUAAAAGCUUGC [MAT - Exclusion Arginine A - Mod of Eli - D23] | 104 | 164 | 68.1 | 185 | 138
15 | GCUGUACCAUGAAGGAGCGUCAUGGAUUGCGAAUACACAUGAGGAUCACCCAUGUUUUUAUGACAGGUAGGUCGCAUGGUACAGC [#01 Same State - Arginine B] | 17.8 | 24.5 | 19.2 | 14.5 | 17.1
16 | GGAGGUACCUGAAGGAGCGACAUGAGGAUCACCCAUGUCUCCCGUUAUGGGAGUUCUUUAGGUCAGGUAGGUCGCAGGUACCUCC [#1 Exclusion - Arginine B Attempt #3 (Inspired by Omei)] | 13.7 | – | – | 88.2 | –
